Test results taken from US6617117B1, “MAP kinases: polypeptides, polynucleotides and uses thereof” (Medical Research Council, priority 1996, dated 2003).

T1: rat SAPK3 (Rattus norvegicus, UniProt Q63538)
T1 construct: made in house; host or cells: E. coli BL21 (DE3)
T1 sequence (Q63538 1-367): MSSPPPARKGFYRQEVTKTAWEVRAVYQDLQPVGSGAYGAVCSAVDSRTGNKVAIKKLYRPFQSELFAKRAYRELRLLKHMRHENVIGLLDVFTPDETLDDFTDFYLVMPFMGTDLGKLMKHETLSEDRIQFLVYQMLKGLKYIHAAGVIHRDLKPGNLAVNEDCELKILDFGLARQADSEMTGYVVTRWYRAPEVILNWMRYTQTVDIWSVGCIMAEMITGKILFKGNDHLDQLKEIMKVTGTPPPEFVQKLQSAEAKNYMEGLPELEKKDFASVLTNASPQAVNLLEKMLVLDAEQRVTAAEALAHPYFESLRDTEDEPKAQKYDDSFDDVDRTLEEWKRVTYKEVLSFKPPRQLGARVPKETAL

T2: SAPK4 (Homo sapiens, UniProt O15264)
T2 sequence (O15264 1-365): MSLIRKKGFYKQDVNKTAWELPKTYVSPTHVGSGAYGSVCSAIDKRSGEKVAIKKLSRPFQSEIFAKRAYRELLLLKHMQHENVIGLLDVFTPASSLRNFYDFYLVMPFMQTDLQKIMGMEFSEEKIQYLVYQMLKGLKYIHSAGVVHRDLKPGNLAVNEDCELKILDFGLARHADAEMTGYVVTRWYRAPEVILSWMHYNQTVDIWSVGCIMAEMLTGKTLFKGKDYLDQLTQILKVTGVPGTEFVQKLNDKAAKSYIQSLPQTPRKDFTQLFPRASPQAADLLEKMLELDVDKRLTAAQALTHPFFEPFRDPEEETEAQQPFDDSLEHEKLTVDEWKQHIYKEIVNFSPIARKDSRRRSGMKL

T3: SAPK3 (Rattus norvegicus, UniProt Q63538)
T3 sequence (Q63538 1-367): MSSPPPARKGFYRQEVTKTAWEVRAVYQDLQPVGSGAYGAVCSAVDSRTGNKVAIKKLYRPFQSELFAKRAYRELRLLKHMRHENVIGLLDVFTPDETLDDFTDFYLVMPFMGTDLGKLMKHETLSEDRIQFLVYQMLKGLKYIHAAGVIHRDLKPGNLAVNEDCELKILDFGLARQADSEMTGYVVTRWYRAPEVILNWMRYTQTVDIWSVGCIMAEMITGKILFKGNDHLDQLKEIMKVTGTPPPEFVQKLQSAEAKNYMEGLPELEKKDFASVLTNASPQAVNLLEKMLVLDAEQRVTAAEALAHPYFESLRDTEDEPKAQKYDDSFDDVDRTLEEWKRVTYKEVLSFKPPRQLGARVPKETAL

B1: c-Jun: transcription factor activation domain linked to GST, kinase substrate (protein)
chain: MTAKMETTFYDDALNASFLPSESGPYGYSNPKILKQSMTLNLADPVGSLKPHLRAKNSDLLTSPDVGLLKLASPELERLIIQSSNGHITTTPTPTQFLCPKNVTDEQEGFAEGFVRALAELHSQNTLPSVTSAAQPVNGAGMVAPAVASVAGGSGSGGFSASLHSEPPVYANLSNFNPGALSSGGGAPSYGAAG
modifications: left off: a dimerising Fc or GST
B2: ATF2: transcription factor activation domain linked to GST, kinase substrate (protein)
chain: MSDDKPFLCTAPGCGQRFTNEDHLAVHKHKHEMTLKFGPARNDSVIVADQTPTPTRFLKNCEEVGLFNELASPFENEF
modifications: left off: a dimerising Fc or GST
B3: SKK3: SAP kinase kinase 3, upstream activator of SAPK2a, SAPK2b, SAPK3 and SAPK4 (protein)
chain: MSQSKGKKRNPGLKIPKEAFEQPQTSSTPPRDLDSKACISIGNQNFEVKADDLEPIMELGRGAYGVVEKMRHVPSGQIMAVKRIRATVNSQEQKRLLMDLDISMRTVDCPFTVTFYGALFREGDVWICMELMDTSLDKFYKQVIDKGQTIPEDILGKIAVSIVKALEHLHSKLSVIHRDVKPSNVLINALGQVKMCDFGISGYLVDSVAKTIDAGCKPYMAPERINPELNQKGYSVKSDIWSLGITMIELAILRFPYDSWGTPFQQLKQVVEEPSPQLPADKFSAEFVDFTSQCLKKNSKERPTYPELMQHPFFTLHESKGTDVASFVKLILGD
B4: MAPKAP-K3: MAP kinase-activated protein kinase-3, GST fusion used as kinase substrate (protein)
chain: MDGETAEEQGGPVPPPVAPGGPGLGGAPGGRREPKKYAVTDDYQLSKQVLGLGVNGKVLECFHRRTGQKCALKLLYDSPKARQEVDHHWQASGGPHIVCILDVYENMHHGKRCLLIIMECMEGGELFSRIQERGDQAFTEREAAEIMRDIGTAIQFLHSHNIAHRDVKPENLLYTSKEKDAVLKLTDFGFAKETTQNALQTPCYTPYYVAPEVLGPEKYDKSCDMWSLGVIMYILLCGFPPFYSNTGQAISPGMKRRIRLGQYGFPNPEWSEVSEDAKQLIRLLLKTDPTERLTITQFMNHPWINQSMVVPQTPLHTARVLQEDKDHWDEVKEEMTSALATMRVDYDQVKIKDLKTSNNRLLNKRRKKQAGSSSASQGCNNQ
modifications: left off: a dimerising Fc or GST
B5: SAP-1: transcription factor activation domain linked to GST, kinase substrate (protein)
chain: TPSPPLSSHPDIDTDIDSVASQPMELPENLSLEPKDQDSVLLEKDKVNNSSRSKKPKGLELAPTLVITSSDPSPLGILSPSLPTASLTPAFFSQTPIILTPSPLLSSIHFWSTLSPVAPLSPARLQGANTLFQFPSVLNSHGPFTLSGLDGPSTPGPFSPDLQKT
modifications: left off: a dimerising Fc or GST

Tests used:
[1] = molecular target: T4, Xenopus homologue of SAPK2a (Xenopus laevis, UniProt P47812); experiment: Substrate specificity: rate of phosphorylation by SAPK2a (Table 1); format: biochemical; conditions: substrate 1 μm; SAPK 0.15 U/ml; means ± SEM of six determinations
T4 construct: made in house; host or cells: E. coli
T4 sequence (P47812 whole entry): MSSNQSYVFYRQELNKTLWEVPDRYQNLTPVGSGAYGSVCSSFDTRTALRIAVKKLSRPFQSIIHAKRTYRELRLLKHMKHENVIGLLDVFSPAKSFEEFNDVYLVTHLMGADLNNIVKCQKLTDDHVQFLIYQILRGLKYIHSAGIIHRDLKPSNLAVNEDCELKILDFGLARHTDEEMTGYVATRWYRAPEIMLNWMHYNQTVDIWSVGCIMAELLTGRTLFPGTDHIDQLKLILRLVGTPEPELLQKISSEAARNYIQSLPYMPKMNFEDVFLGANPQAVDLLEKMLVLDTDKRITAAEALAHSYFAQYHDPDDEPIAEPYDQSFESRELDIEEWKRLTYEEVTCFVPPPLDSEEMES
Procedure: (§1) Experiments were carried out with the Xenopus homologue of SAPK2a, human SAPK2b and human SAPK4. The SAPKs were activated in vitro (FIG. 7) and phosphorylation of each protein was studied at a SAPK concentration of 0.15 U/ml. The results are presented as means±SEM of six determinations (two separate experiments). The data for rat SAPK3 are taken from Example 4 and Cuenda et al (1997).

human SAPK2b = molecular target: T5, human SAPK2b (Homo sapiens, UniProt Q15759); experiment: Substrate specificity: rate of phosphorylation by SAPK2b (Table 1); format: biochemical; conditions: substrate 1 μm; SAPK 0.15 U/ml; means ± SEM of six determinations
T5 construct: a number of SAPK2b clones, some of which were full-length; made in house; host or cells: E. coli BL21(DE3)
T5 sequence (Q15759 whole entry): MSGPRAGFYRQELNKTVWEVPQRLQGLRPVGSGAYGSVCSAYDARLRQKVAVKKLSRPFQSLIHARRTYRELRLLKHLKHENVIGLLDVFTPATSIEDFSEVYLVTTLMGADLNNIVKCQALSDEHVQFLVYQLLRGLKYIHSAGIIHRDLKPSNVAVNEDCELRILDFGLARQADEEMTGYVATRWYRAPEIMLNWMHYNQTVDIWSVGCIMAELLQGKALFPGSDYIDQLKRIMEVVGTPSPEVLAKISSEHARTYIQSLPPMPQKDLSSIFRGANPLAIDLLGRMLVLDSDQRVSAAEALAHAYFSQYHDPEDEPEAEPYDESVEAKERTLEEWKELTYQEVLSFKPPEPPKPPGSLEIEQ
Procedure: as §1

rat SAPK3 = molecular target: T1, rat SAPK3; experiment: Substrate specificity: rate of phosphorylation by SAPK3 (Tables 1 and 2); format: biochemical; conditions: for Rate of phosphorylation relative to MBP, SAPK3: substrate 1 μM, SAPK 0.1 U/ml; for Rates of phosphorylation relative to MBP, SAPK3: substrate 1 μm, rat SAPK3 data taken from Example 4 and Cuenda et al (1997)
Procedure: as §1
(§2) Protein kinase assays. SAPK3 was assayed routinely by the phosphorylation of MBP. […] After 20 min at 30° C.
(§3) Table 2. Comparison of substrate specificities of SAPK2 and SAPK3. SAPK2 and SAPK3 were activated in vitro (FIG. 15) and phosphorylation of each protein studied at a SAPK concentration of 0.1 U/ml.

[2] = molecular target: T6, SAPK2 (Xenopus homologue) (Xenopus laevis, UniProt P47812); experiment: Substrate specificity: rate of phosphorylation by SAPK2 (Table 2); format: biochemical; conditions: substrate 1 μM; SAPK 0.1 U/ml
T6 construct: made in house; host or cells: E. coli
T6 sequence (P47812 whole entry): as the sequence (P47812 whole entry) above
Procedure: as §2, §3

SAPK4 [3] = molecular target: T2, SAPK4; experiment: Substrate specificity: rate of phosphorylation by SAPK4 (Table 1); format: biochemical; parameters: made in house; host or cells: E. coli BL21(DE3); conditions: substrate 1 μm; SAPK 0.15 U/ml; means ± SEM of six determinations
Procedure: as §1
SAPK4 is assayed routinely by the phosphorylation of MBP. […] After washing and drying the papers (Alessi et al, 1995 Meth. Enzymol. 255, 279-290) ^32P radioactivity incorporated into MBP is measured.

SAPK4 [4] = molecular target: T2, SAPK4; experiment: Co-transfection of SAPK4 with SKK3 into COS cells; format: cell-based; parameters: expressed in transfected cells; host or cells: COS1 cells, co-transfected with human SKK3; conditions: n=3
Procedure: For bacterial expression, the open reading frames of human cDNA clones hSAPK2B2, hSAPK32 and hSAPK412 were amplified by PCR and subcloned as EcoRI fragments into expression vector pGEX4T-1 (Pharmacia), followed by transformation into E. coli strain BL21(DE3). The transformed bacteria were grown to an absorbance of 0.6 at 600 nm and induced with 0.4 mM isopropyl-1-thio-β-galactopyranoside (IPTG). […] For expression of c-myc epitope-tagged SAPK4, PCR was used to introduce the nucleotide sequence encoding the amino acid sequence […] (SEQ. ID. NO: 4) at the carboxy-terminus of SAPK4, followed by a stop codon. The resulting EcoRI/NotI fragment was subcloned into the mammalian expression vector pcDNA3.1 (Invitrogen). […] PCR fragments were verified by DNA sequencing. Transfections into COS1 cells were done as described in Example 4 and Cuenda et al, 1997.
We have shown previously that SKK3 accounts for 95% and SKK2 for 5% of the SAPK2a activator detected after Mono S chromatography of lysates from KB cells that have been stressed in several ways or stimulated with IL1 (Cuenda et al, 1996; Meier et al, 1996). […] SKK3 was also the only activator of SAPK4 after subjecting KB cells to osmotic stress using sorbitol (data not shown). Further evidence that SKK3 can activate SAPK4 in vivo was obtained by co-transfection into COS cells. […]

SAPK3 = molecular target: T3, SAPK3; experiment: Co-transfection of SAPK3 with SKK3 into COS cells (FIG. 14); format: cell-based; parameters: expressed in transfected cells; host or cells: COS-1 cells (vector pSG5), alone or with human SKK3 or MEK kinase
Procedure: FIG. 14. SKK3 activates SAPK3 in transfected cells. COS-1 cells were transiently transfected with DNA expressing SAPK3 or co-transfected with either SKK3 or MEK kinase (MEKK). Cells were stimulated in DMEM for 15 min or with 0.5 M sorbitol. After stimulation and lysis, SAPK3 was immunoprecipitated from the cell lysates using an anti-SAPK3 antibody raised against the C-terminal 16 residues of SAPK3 (see Methods) and activity measured using MBP as the substrate.
Cell culture and transient transfections. 293, KB and COS-7 cells were cultured in Dulbecco's modified Eagles' Medium (DMEM) supplemented with 10% foetal calf serum, at 37° C., in an atmosphere of 5% CO2. Transfections of 293 cells were carried out using the calcium-phosphate method. Cells were split to a density of 2×106 per 10 cm dish, and after 12 h at 37° C., 10 μg of plasmid DNA in 0.45 ml of sterile water was added to 50 μl of sterile CaCl2, and then 0.5 ml of sterile buffer composed of 50 mM N,N-bis[2-hydroxyethyl]-2-aminoethanesulphonic acid/HCl pH 6.96, 0.28 M NaCl and 1.5 mM Na2HPO4 was added. The resulting mixture was vortexed for 1 min, allowed to stand at room temperature for 20 min, and then added dropwise to a 10 cm dish of 293 cells. The cells were placed in an atmosphere of 3% CO2 for 16 h at 37° C., then the medium was aspirated and replaced with new DMEM containing 10% foetal calf serum. […]

Molecule	Rates of phosphorylation relative to MBP, SAPK2a [1]	Rates of phosphorylation relative to MBP, SAPK2b (human SAPK2b)	Rate of phosphorylation relative to MBP, SAPK3 (rat SAPK3)	Rates of phosphorylation relative to MBP, SAPK3 (rat SAPK3)	Rate of phosphorylation relative to MBP, SAPK2 [2]	Rates of phosphorylation relative to MBP, SAPK4 (SAPK4 [3])	Elevation of SAPK4 activity by co-expression (SAPK4 [4])	Elevation of SAPK3 activity by coexpression (SAPK3)	Greater activation of transfected SAPK3 by osmotic shock where cotransfected (SAPK3; osmotic shock)
B1	4 ± 1%	7 ± 2%	2 ± 1	2 ± 1%	2 ± 1	6 ± 2%			
B2	40 ± 2%	62 ± 2%	107 ± 20	107 ± 20%	86 ± 20	130 ± 2%			
B3							12.5±0.63 fold	10 fold	30 fold
B4	87 ± 10%	66 ± 6%		20 ± 6%		18 ± 2%			
B5	25 ± 1%	27 ± 5%	108 ± 15	108 ± 15%	55 ± 13	62 ± 5%			
